In US20250002610A1 (Genmab, published 2025):
Changes are numbered by the printed parent chain.

T1: human DR4 (Death Receptor 4), cell surface expressed on human tumor cell lines (human, UniProt O00220 24-468)
T1 construct: also called TNFRSF10A; TRAIL-R1
T1 sequence: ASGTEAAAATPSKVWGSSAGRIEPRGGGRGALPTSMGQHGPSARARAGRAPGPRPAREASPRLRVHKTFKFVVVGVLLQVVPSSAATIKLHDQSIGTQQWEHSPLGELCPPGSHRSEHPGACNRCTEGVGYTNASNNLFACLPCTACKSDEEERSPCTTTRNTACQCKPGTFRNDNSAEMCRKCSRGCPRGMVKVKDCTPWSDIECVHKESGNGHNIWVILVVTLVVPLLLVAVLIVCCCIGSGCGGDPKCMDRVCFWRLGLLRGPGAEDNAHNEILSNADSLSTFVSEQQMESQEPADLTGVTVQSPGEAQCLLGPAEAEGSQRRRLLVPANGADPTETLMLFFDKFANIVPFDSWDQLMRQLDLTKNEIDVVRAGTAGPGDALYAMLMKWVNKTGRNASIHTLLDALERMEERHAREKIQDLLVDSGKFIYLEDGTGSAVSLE

T2: human FAPα (Fibroblast activation protein alpha), cell surface expressed (human, UniProt Q12884 1-760)
T2 construct: Endogenous on human lung fibroblasts and CAFs
T2 sequence: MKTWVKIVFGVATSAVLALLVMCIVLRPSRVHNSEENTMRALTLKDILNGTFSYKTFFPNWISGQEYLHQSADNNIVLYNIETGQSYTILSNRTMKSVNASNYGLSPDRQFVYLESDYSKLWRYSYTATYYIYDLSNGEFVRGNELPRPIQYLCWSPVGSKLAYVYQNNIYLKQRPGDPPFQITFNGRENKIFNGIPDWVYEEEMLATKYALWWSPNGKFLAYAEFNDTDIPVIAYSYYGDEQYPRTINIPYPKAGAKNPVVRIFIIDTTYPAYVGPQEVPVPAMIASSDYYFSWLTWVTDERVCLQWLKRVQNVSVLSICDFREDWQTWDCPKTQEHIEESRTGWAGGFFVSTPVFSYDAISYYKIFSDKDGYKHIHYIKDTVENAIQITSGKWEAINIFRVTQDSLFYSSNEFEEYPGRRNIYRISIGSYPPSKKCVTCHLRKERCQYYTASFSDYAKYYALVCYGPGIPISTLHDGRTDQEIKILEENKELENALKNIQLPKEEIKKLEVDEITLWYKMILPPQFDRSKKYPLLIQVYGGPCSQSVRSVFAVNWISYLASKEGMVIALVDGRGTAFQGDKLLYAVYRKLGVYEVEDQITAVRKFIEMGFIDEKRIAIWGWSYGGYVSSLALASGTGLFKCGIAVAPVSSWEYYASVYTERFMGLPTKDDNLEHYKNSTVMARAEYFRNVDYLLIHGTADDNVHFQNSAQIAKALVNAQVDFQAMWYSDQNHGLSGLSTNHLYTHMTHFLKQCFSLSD

T3: cynomolgus monkey FAPα on Expi293F cells (cynomolgus monkey (Macaca fascicularis), UniProt Q12884 1-760 (human entry))
T3 sequence: T2 sequence with S29P, V261F, E417D

B1: IgG1-DR4-FERR (antibody, V domains shown)
VH: QVQLQESGPGLVKPSGTLSLTCAVSGGSISSYSWWSWIRQPPGKGLEWIGELYHSGSTNYNPSLKSRVTISVDKSKNQFSLKLRSVTAADTAVYYCVRGVATIDYWGQGTLVTVSS
VL: QSALTQPPSASGSPGQSVTISCTGTSSDVGGYNFVSWYQQDPGKAPKLLIYEVTKRPSGVPDRFSGSKSGNTASLTVSGLQAEDEADYYCSSYAGSNNVMFGGGTKLTVLG
notes: Bivalent monoclonal IgG1 lambda
B2: BisG1-FAPα-FERL/DR4-FERR (bispecific antibody, human IgG1, kappa, lambda)
heavy 1: EVQLLESGGGLVQPGGSPRLSCEASGFTFSSYALSWVRQAPGKGLEWVSAISGSGGGRYYADSVKGRFTISRDNSKNTLFLQMNSLRAEDTAVYYCAKEGYSSSGTYWDHWGQGTLVTVSSASTKGPSVFPLAPSSKSTSGGTAALGCLVKDYFPEPVTVSWNSGALTSGVHTFPAVLQSSGLYSLSSVVTVPSSSLGTQTYICNVNHKPSNTKVDKRVEPKSCDKTHTCPPCPAPEFERGPSVFLFPPKPKDTLMISRTPEVTCVVVDVSHEDPEVKFNWYVDGVEVHNAKTKPREEQYNSTYRVVSVLTVLHQDWLNGKEYKCKVSNKALPAPIEKTISKAKGQPREPQVYTLPPSREEMTKNQVSLTCLVKGFYPSDIAVEWESNGQPENNYKTTPPVLDSDGSFLLYSKLTVDKSRWQQGNVFSCSVMHEALHNHYTQKSLSLSPG
light 1: AIQMTQSPSSVSASVGDRVTITCRASQGVSSWLAWYQQKPGRAPKLLIYVASTLQSGVPSRFSGSGSGTDFTLTINSLQPEDFATYYCQQANSFPPTFGQGTRLEMKRTVAAPSVFIFPPSDEQLKSGTASVVCLLNNFYPREAKVQWKVDNALQSGNSQESVTEQDSKDSTYSLSSTLTLSKADYEKHKVYACEVTHQGLSSPVTKSFNRGEC
heavy 2: QVQLQESGPGLVKPSGTLSLTCAVSGGSISSYSWWSWIRQPPGKGLEWIGELYHSGSTNYNPSLKSRVTISVDKSKNQFSLKLRSVTAADTAVYYCVRGVATIDYWGQGTLVTVSSASTKGPSVFPLAPSSKSTSGGTAALGCLVKDYFPEPVTVSWNSGALTSGVHTFPAVLQSSGLYSLSSVVTVPSSSLGTQTYICNVNHKPSNTKVDKRVEPKSCDKTHTCPPCPAPEFERGPSVFLFPPKPKDTLMISRTPEVTCVVVDVSHEDPEVKFNWYVDGVEVHNAKTKPREEQYNSTYRVVSVLTVLHQDWLNGKEYKCKVSNKALPAPIEKTISKAKGQPREPQVYTLPPSREEMTKNQVSLTCLVKGFYPSDIAVEWESNGQPENNYKTTPPVLDSDGSFFLYSRLTVDKSRWQQGNVFSCSVMHEALHNHYTQKSLSLSPG
light 2: QSALTQPPSASGSPGQSVTISCTGTSSDVGGYNFVSWYQQDPGKAPKLLIYEVTKRPSGVPDRFSGSKSGNTASLTVSGLQAEDEADYYCSSYAGSNNVMFGGGTKLTVLGQPKAAPSVTLFPPSSEELQANKATLVCLISDFYPGAVTVAWKADSSPVKAGVETTTPSKQSNNKYAASSYLSLTPEQWKSHRSYSCQVTHEGSTVEKTVAPTECS
notes: Human IgG1 bispecific made by controlled Fab-arm exchange of IgG1-FAPα-FERL and IgG1-DR4-FERR; monovalent for FAPα and for DR4; also called GEN1057
B3: IgG1-FAPα-FERL (antibody)
heavy: B2 heavy 1
light: B2 light 1
notes: Bivalent monoclonal IgG1 kappa
B4: BisG1-b12-FERL/DR4-FERR (bispecific antibody, human IgG1, kappa, lambda)
heavy 1: QVQLVQSGAEVKKPGASVKVSCQASGYRFSNFVIHWVRQAPGQRFEWMGWINPYNGNKEFSAKFQDRVTFTADTSANTAYMELRSLRSADTAVYYCARVGPYSWDDSPQDNYYMDVWGKGTTVIVSSASTKGPSVFPLAPSSKSTSGGTAALGCLVKDYFPEPVTVSWNSGALTSGVHTFPAVLQSSGLYSLSSVVTVPSSSLGTQTYICNVNHKPSNTKVDKRVEPKSCDKTHTCPPCPAPEFERGPSVFLFPPKPKDTLMISRTPEVTCVVVDVSHEDPEVKFNWYVDGVEVHNAKTKPREEQYNSTYRVVSVLTVLHQDWLNGKEYKCKVSNKALPAPIEKTISKAKGQPREPQVYTLPPSREEMTKNQVSLTCLVKGFYPSDIAVEWESNGQPENNYKTTPPVLDSDGSFLLYSKLTVDKSRWQQGNVFSCSVMHEALHNHYTQKSLSLSPG
light 1: EIVLTQSPGTLSLSPGERATFSCRSSHSIRSRRVAWYQHKPGQAPRLVIHGVSNRASGISDRFSGSGSGTDFTLTITRVEPEDFALYYCQVYGASSYTFGQGTKLERKRTVAAPSVFIFPPSDEQLKSGTASVVCLLNNFYPREAKVQWKVDNALQSGNSQESVTEQDSKDSTYSLSSTLTLSKADYEKHKVYACEVTHQGLSSPVTKSFNRGEC
heavy 2: B2 heavy 2
light 2: B2 light 2
notes: Fab-arm exchange of IgG1-b12-FERL and IgG1-DR4-FERR; also called bsIgG1-ctrl-FERLxDR4-FERR
B5: BisG1-FAPα-FEAL/b12-FEAR (bispecific antibody, human IgG1, kappa)
heavy 1: B2 heavy 1 with R240G, D269A
light 1: B2 light 1
heavy 2: B4 heavy 1 with R246G, D275A, L415F, K419R
light 2: B4 light 1
notes: Fab-arm exchange of IgG1-FAPα-FEAL and IgG1-b12-FEAR

Legend:
[1] = target: T1, human DR4 (Death Receptor 4), cell …; assay: flow cytometry, MDA-MB-231 cells, average ± SEM
[2] = target: T2, human FAPα (Fibroblast activation …); assay: flow cytometry, Expi293F cells expressing human FAPα, n = 3
Experimental: (§1) Binding of BisG1-FAPα-FERL/DR4-FERR, BisG1-FAPα-FEAL/b12-FEAR and IgG1-FAPα-FERL to FAPα of species commonly used for nonclinical toxicology studies was assessed by flow cytometry using Expi293F cells transiently expressing FAPα from different animal species. IgG1-b12 was included as negative control.
(§2) Expi293F cells expressing recombinant FAPα from various species (human, cynomolgus monkey, dog, pig, rat or mouse) were seeded (20,000 cells/well) in 96-Well round bottom plates (Greiner Bio-one, Cat #650101). Antibody dilutions were prepared using FACS buffer, consisting of PBS (Capricorn Scientific, Cat #PBS-10XA, diluted to 1×PBS in distilled water)+1% BSA (Roche, Cat #10735086001)+0.02% Sodium Azide (Bio-World, Cat #41920044-3). Plates were centrifuged, supernatant was removed, and cells were resuspended in 100 μL of antibody dilutions (concentration range 30-0.00017 μg/mL with three-fold serial dilutions using FACS buffer) of BisG1-FAPα-FERL/DR4-FERR, BisG1-FAPα-FEAL/b12-FEAR, IgG1-FAPα-FERL and IgG1-b12 and incubated for 30 min at 4° C. […] After 30 min incubation at 4° C., cells were washed with FACS buffer and resuspended in FACS buffer supplemented with TO-PRO-3 Iodide viability marker (Invitrogen, Cat #T3605, diluted 1:4,000). Antibody binding to viable cells (gMFI of PE on TO-PRO-3 negative cells) was analyzed by flow cytometry on a FACS Celesta and FACS_Diva software (first two experiments) or iQue® 3 and FlowJo software (last experiment). gMFI was determined and visualized using GraphPad Prism. Binding curves were analyzed using nonlinear regression analysis. The concentration (pg/mL) at which 50% of the maximal effect was observed (EC₅₀) was derived from the fitted curves.

[3] = target: T3, cynomolgus monkey FAPα on Expi293F cells; assay: flow cytometry, Expi293F cells expressing cynomolgus monkey FAPα, average ± SEM
Experimental: as §1, §2

Row | Binder | EC50 [1] | EC50 [2] | EC50 [3] | Max MFI (at 90 µg/mL) [1]
1 | B1 | 0.25 µg/mL |  |  | 
2 | B2 | 0.72 µg/mL | 0.23 µg/mL | 0.25 µg/mL | 
3 | B3 |  | 0.32 µg/mL | 0.1 µg/mL | 
4 | B4 | 0.67 µg/mL |  |  | 7840 MFI
5 | B5 |  | 0.61 µg/mL | 0.19 µg/mL | 
